Measured values reported in patent publication US20160250307A1.

Molecular target: HLA-A*02 (human)
Test: UV-ligand exchange, anti-b2m ELISA; grade: exchange yield >=50%

peptide exchange yield [%]	Binder
50 to 75	ALDSGAFQSV (modifications not checked)

Molecular target: HLA-A*24 (human)
Test: as above

peptide exchange yield [%]	Binder
50 to 75	AFSPDSHYLLF
50 to 75	VFHPRQELI

Molecular target: HLA-A*24 (human)
Test: UV-ligand exchange, anti-b2m ELISA; grade: exchange yield >=75%

peptide exchange yield [%]	Binder
> 75	IYIPSYFDF
> 75	SYITKPEKW
> 75	AYGTYRSNF
> 75	DYIPYVFKL
> 75	YYGILQEKI
> 75	VYGLQRNLL
> 75	SYNPAENAVLL
> 75	RWPKKSAEF
> 75	AYLKWISQI
> 75	KYPDIISRI
> 75	IYADVGEEF
> 75	IYPGAFVDL
> 75	LYWSHPRKF
> 75	VYGDVISNI
> 75	RYNEKCFKL
> 75	KFVTVQATF
> 75	RYSAGWDAKF
> 75	AYPAIRYLL
> 75	RYAPPPSFSEF
> 75	SYPTFFPRF
> 75	IYTGNISSF
> 75	IYLERFPIF
> 75	IYVTSIEQI
> 75	YYNKVSTVF
> 75	AYVNTFHNI
> 75	KWPETPLLL
> 75	AYLLQPSQF
> 75	VYQGAIRQI
